{"source": "patent US20060165683A1", "about": "“Methods and compositions for control of bone formation via modulation of sympathetic tone” (priority 2001, published 2006)", "key": {"parabiosed ob/ob mice": {"system": "parabiosed ob/ob mice", "assay": "Cross circulation (parabiosis) between ob/ob mice with leptin ICV in one mouse of each pair", "format": "in vivo", "excerpt": "Cross Circulation (Parabiosis) Procedure. Following anesthesia by standard procedures, the surgery is made under adequate anesthesia and aseptic techniques. A longitudinal incision is made along one side on each mouse and skin is loosened from connective tissue. The ventral edges of the incision are joined by suture. Abdominal cavity of each mouse is opened and connected to make coelio anastomosis. Finally, the dorsal edges of the skin incision are joined. Parabiosed mice are housed in separate cages subsequently. Mice used for this procedure are syngenic to avoid immune reactions. Bone histology and histomorphometry are performed at the end of the treatment period to determine bone mass.\nTo determine whether the signal(s) emanating from the brain and controlling bone formation was/were of humoral nature, cross circulation (parabiosis) experiments were performed between ob/ob mice. Four weeks after establishing and verifying the cross circulation, a pump delivering leptin ICV (8 ng/h) was installed in one mouse of each parabiosed pair. […] Body weight and bone histology of the ipsilateral and contralateral mouse of each pair was analyzed four weeks later, reasoning that if leptin was using humoral means to control body weight and bone mass, both mice in each pair should respond equally well to the leptin infusion.\nWildtype (C57BL/6J) and mutant (C57BL/6J A^y/a, C57BL/6J ob/ob) mice were obtained from the Jackson laboratory and adrenal medullectomized mice from Harlan Tecklad laboratory. Dbh−/− mice were rescued as previously described (Thomas et al., 1998, Neurochem 70:2468-2476). Isoproterenol (Sigma) was injected intraperitoneally (ip) once daily for 6 weeks at 30 mg/kg (wt) or 3 mg/kg (ob/ob). Propranolol (Sigma) was added to the drinking water at a concentration of 0.5 g/l. For ICV infusion, a 28-gauge cannula (Brain infusion kit II, Alza) was implanted into the third ventricle as previously described infusing human leptin (Sigma) at 8 ng/hr or MT-II at 125 ng/hr (Phoenix Pharmaceuticals) for 28 days (see, e.g., Ducy et al., 2000, Cell 100: 197-207). The cannula was connected to an osmotic pump (Alza) placed in the dorsal subcutaneous space of the animal. For parabiosis longitudinal incisions were made in the skin and in the peritoneal cavity along one side on each mouse. Edges of the incisions were connected by suture to induce coelioanastomosis. Cross-circulation was quantified by injecting 1 ml/kg 0.25% Evans blue into the tail vein of one mouse of the parabiosed pair. After 30 min. blood was collected from both mice by retroorbital bleeding and the blood exchange rate was calculated according to standard techniques (see, e.g., Harris & Martin, 1984, Am J Physiol 247:R380-386). […] Two weeks after parabiosis a pump delivering leptin ICV in one animal of each pair was implanted. For GTG lesioning, 4-week-old C57BL/6J mice were given a single ip injection of either PBS or GTG (0.5 mg/g). For MSG lesioning, 2 day-old C57BL/6J pups were injected daily subcutaneously with either PBS or MSG (2 mg/g) for 10 days.\nThe next question was whether the signal(s) emanating from the hypothalamic antiosteogenic network was/were of humoral or of neuronal nature. To that end, cross-circulation (parabiosis) experiments between ob/ob animals (that have no circulating leptin) were relied upon. […] Four weeks later the animals were sacrificed and analyzed."}, "[1]": {"system": "primary osteoblasts isolated from wild-type mice", "assay": "Leptin signaling in primary osteoblast cultures (Stat3 phosphorylation, immediate early genes, matrix synthesis and mineralization)", "format": "cell-based, mouse", "method": "Expression of leptin in osteoblasts was studied in subconfluent primary osteoblast cultures from wild-type mice which were maintained for 4 days in 10% FBS mineralization medium and then subsequently switched to 0.5% for 2 days and replaced daily. Medium was replaced 2 hours before a 20 min treatment with 80 ng/mL leptin (Sigma) or 40 ng/mL Oncostatin M (R&D Diagnostics) or vehicle. RNA extractions were performed using Triazol (Gibco). Northern blots were performed with 15 μg of total RNA according to methods well known in the art.\nTo determine whether or not leptin could transduce its signal in osteoblasts, serum-starved primary osteoblasts isolated from wild-type mice were treated with leptin. Primary osteoblast cultures from calvaria of newborn wild-type or db/db mice were established as previously described (Ducy et al., 1999, Genes Dev 13, 1025-1036) and maintained in mineralization medium (αMEMI 0.1 mg/mL ascorbic acid; 5 mM […]) supplemented with 10% […]. Cultures of mutant cells were maintained in this medium for 15 days before analysis. Cultures derived from wild-type mice were maintained for 10 days in this medium then the percentage of serum was reduced to 0.5% and the medium supplemented with 1.2 μg/mL leptin (Sigma) or vehicle for 5 days.\nThe phosphorylation of Stat3, a downstream effector of leptin signaling in its target cells (Tartaglia et al., 1995, Cell 83, 1263-1271; Baumann et al., 1996, Proc Natl Acad Sci USA 93, 8374-8378; Ghilardi et al., 1996, Proc Natl Acad Sci USA 93, 6231-6235; Vaisse et al., 1996, Nat Genet 14, 95-97), was monitored, in addition to the expression of two immediate early genes whose transcription is increased following leptin treatment of target cells (Elmquist et al., 1997, Endocrinology 138, 839-842). As a positive control oncostatin-M that induces Stat3 phosphorylation and activates the expression of the same two immediate early genes in osteoblasts (Levy et al., 1996, Endocrinology 137, 1159-1165) was utilized. Western blot analysis was performed to determine Stat3 phosphorylation as follows. Cells were lysed, protein extracts were separated on a 7.5% SDS-PAGE and blotted on nitrocellulose (Biorad) for immunoblotting assay by methods well known in the art. Analysis of Stat3 phosphorylation was performed using the PhosphoPlus Stat3 (Tyr7O5) Antibody kit (New England Biolabs) according to the manufacturer's instructions.\nFinally, the effect of a long-term leptin treatment of primary osteoblast cultures from wild-type mice on extracellular matrix synthesis and bone matrix mineralization was determined. The presence of a collagen-rich extracellular matrix and of mineralization nodules was assessed by whole-mount staining of the cultures by the van Gieson and von Kossa reagent, respectively. No difference was observed when assessing collagen synthesis or mineralization nodule formation between control and leptin-treated cultures (FIG. 5E)."}, "[2]": {"conditions": "contralateral parabiosed partner"}, "[3]": {"conditions": "ipsilateral mouse, 8 ng/h, four weeks"}}, "note": "“Also recorded” adds a separate entry of the source."}
{"molecule": "leptin: polypeptide hormone, product of the ob gene; human leptin (Sigma) infused ICV (protein) VPIQKVQDDTKTLIKTIVTRINDISHTQSVSAKQRVTGLDFIPGLHPILSLSKMDQTLAVYQQVLTSLPSQNVLQIANDLENLRDLLHLLAFSKSCSLPQTSGLQKPESLDGVLEASLYSTEVVALSRLQGSLQDILQQLDVSPEC", "values": [{"measurement": "body weight loss in the contralateral mouse", "setting": "parabiosed ob/ob mice; [2]", "result": "never observed"}, {"measurement": "bone mass / bone volume of the contralateral mouse", "setting": "parabiosed ob/ob mice; [2]", "result": "never observed; also recorded: no modification"}, {"measurement": "body weight of the ob/ob mouse receiving leptin ICV", "setting": "parabiosed ob/ob mice; [3]", "result": "dropped considerably"}, {"measurement": "bone mass / bone volume of the ob/ob mouse receiving leptin ICV", "setting": "parabiosed ob/ob mice; [3]", "result": "dropped considerably; also recorded: dropped significantly"}, {"measurement": "leptin in plasma / serum (leakage into the general circulation)", "setting": "parabiosed ob/ob mice; parabiosed ob/ob mice after ICV infusion", "result": "absence of measurable leptin"}, {"measurement": "collagen synthesis or mineralization nodule formation vs control cultures", "setting": "[1]; long-term treatment, 1.2 μg/mL leptin for 5 days, 0.5% serum", "result": "No difference"}, {"measurement": "expression of Tis11 and c-fos (Northern analysis)", "setting": "[1]; primary osteoblasts, 20 min treatment", "result": "not"}, {"measurement": "Stat3 phosphorylation (Western blot)", "setting": "[1]; serum-starved primary osteoblasts, 20 min, leptin 80 ng/mL, Oncostatin M 40 ng/mL", "result": "did not"}]}
